Assay results published in article PMC3072757 (Journal of molecular biology, 2010).
Read-outs that look alike come from different tables or passages of the source.

B1: Recombinant wild-type human αB-crystallin (natural protein, UniProt P02511 1-175, looked up)
chain: MDIAIHHPWIRRPFFPFHSPSRLFDQFFGEHLLESDLFPTSTSLSPFYLRPPSFLRAPSWFDTGLSEMRLEKDRFSVNLDVKHFSPEELKVKVLGDVIEVHGKHEERQDEHGFISREFHRKYRIPADVDPLTITSSLSSDGVLTVNGPRKQVSGPERTIPITREEKPAVTAAPKK
B2: W9F/W60F αB-Crys (natural protein, human, UniProt P02511 1-175, looked up)
chain: MDIAIHHPFIRRPFFPFHSPSRLFDQFFGEHLLESDLFPTSTSLSPFYLRPPSFLRAPSFFDTGLSEMRLEKDRFSVNLDVKHFSPEELKVKVLGDVIEVHGKHEERQDEHGFISREFHRKYRIPADVDPLTITSSLSSDGVLTVNGPRKQVSGPERTIPITREEKPAVTAAPKK

What was measured:
[1] = target: the molecule itself; assay: SEC
[2] = target: the molecule itself; assay: SEC; remark: listed apart in the source

Protein | binding result [1] | binding result [2]
B1 | binds | 
B2 |  | binds
